Assay results: publication PMC7612376, “Structural basis of meiotic chromosome synaptic elongation through hierarchical fibrous assembly of SYCE2-TEX12” (Nature structural & molecular biology, 2021)
Positions count from the first letter of the chain named. In names and notes the source's numbering stands. Each block holds one molecule with its values, some of them ahead of it.

T1: SYCE2 full-length (1-218) (human, UniProt Q6PIF2 1-218)
T1 construct: SYCE2, human, full-length, residues 1-218; source: E. coli BL21 (DE3), co-expressed with TEX12, purified (Ni-NTA, amylose, ion exchange, SEC); not shown: MBP, N-terminal, cleaved
T1 sequence (looked up): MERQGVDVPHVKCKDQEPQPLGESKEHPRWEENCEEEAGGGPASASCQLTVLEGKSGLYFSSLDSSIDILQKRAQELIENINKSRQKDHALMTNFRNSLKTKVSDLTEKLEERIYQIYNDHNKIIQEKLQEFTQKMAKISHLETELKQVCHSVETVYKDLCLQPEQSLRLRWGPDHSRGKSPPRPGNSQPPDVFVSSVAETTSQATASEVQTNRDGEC

T2: MBP-SYCE2 core (57-165) fusion protein (human, UniProt Q6PIF2 57-165)
T2 construct: SYCE2, human, core, residues 57-165; also called SYCE2-TEX12 core MBP-fusion, SYCE2 chain; source: E. coli BL21 (DE3), co-expressed with TEX12, purified; not shown: MBP, N-terminal, kept
T2 sequence (looked up): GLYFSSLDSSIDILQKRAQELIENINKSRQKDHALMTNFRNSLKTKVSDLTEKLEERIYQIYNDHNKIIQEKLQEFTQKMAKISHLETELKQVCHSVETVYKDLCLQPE

T3: MBP-SYCE2 core ΔS2C (57-154) fusion protein (human, UniProt Q6PIF2 57-154)
T3 construct: SYCE2, human, ΔS2C, residues 57-154; also called ΔS2C MBP-fusion, SYCE2 chain; source: E. coli BL21 (DE3), co-expressed with TEX12, purified; not shown: MBP, N-terminal, kept
T3 sequence (looked up): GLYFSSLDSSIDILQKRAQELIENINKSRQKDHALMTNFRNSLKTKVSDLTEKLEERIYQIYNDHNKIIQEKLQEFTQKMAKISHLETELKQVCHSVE

T4: SYCE2 core ΔS2C (amino-acids 57-154) (human, UniProt Q6PIF2 57-154)
T4 construct: SYCE2, human, ΔS2C, residues 57-154; source: E. coli BL21 (DE3), co-expressed with TEX12, purified (Ni-NTA, amylose, ion exchange, SEC); not shown: MBP, N-terminal, cleaved
T4 sequence (looked up): T3 sequence (looked up)

B1: TEX12 ΔCtip (amino-acids 1-113) (domain or fragment, human, UniProt Q9BXU0 1-113, looked up)
chain: MMANHLVKPDNRNCKRPRELESPVPDSPQLSSLGKSDSSFSEISGLFYKDEALEKDLNDVSKEINLMLSTYAKLLSERAAVDASYIDEIDELFKEANAIENFLIQKREFLRQR
notes: TEX12, human, ΔCtip, residues 1-113; also called TEX12 ΔCtip truncation; source: E. coli BL21 (DE3), co-expressed with SYCE2, purified (Ni-NTA, amylose, ion exchange, SEC); not shown: His6, N-terminal, cleaved
B2: TEX12 core F102A F109A V116A (domain or fragment, human, UniProt Q9BXU0 49-123, looked up)
chain: KDEALEKDLNDVSKEINLMLSTYAKLLSERAAVDASYIDEIDELFKEANAIENALIQKREALRQRFTAIANTLHR
notes: TEX12, human, core, residues 49-123, with F102A, F109A and V116A; also called FFV (core); source: E. coli BL21 (DE3), co-expressed with SYCE2, purified (Ni-NTA, amylose, ion exchange, SEC); not shown: His6, N-terminal, cleaved
B3: SYCE2-TEX12 core wild-type MBP-fusion, 2:2 building block (complex, human)
chain 1: T2 sequence (looked up)
chain 2: B2 chain with A54F, A61F, A68V
notes: SYCE2, human, core, residues 57-165; TEX12, human, core, residues 49-123; m6 + m16; found as a 4:4 complex in solution; also called SYCE2-TEX12 core MBP-fusion wild-type; source: E. coli BL21 (DE3), co-expressed, purified; not shown: MBP, N-terminal, kept; copies: 2 + 2
B4: SYCE2-TEX12 core H89E/Y115E, 2:2 building block (complex, human)
chain 1: T2 sequence (looked up) with H33E, Y59E
chain 2: B2 chain with A54F, A61F, A68V
notes: SYCE2, human, core, residues 57-165, with H89E and Y115E; TEX12, human, core, residues 49-123; m4 + m8; also called H89E Y115E mutation; source: E. coli BL21 (DE3), co-expressed, purified (Ni-NTA, amylose, ion exchange, SEC); not shown: MBP, N-terminal, cleaved; His6, N-terminal, cleaved; copies: 2 + 2
B5: SYCE2-TEX12 core wild-type, 2:2 building block (complex, human)
chain 1: T2 sequence (looked up)
chain 2: B2 chain with A54F, A61F, A68V
notes: SYCE2, human, core, residues 57-165; TEX12, human, core, residues 49-123; in solution it is found as 4:4 complex and larger assemblies, which are the rows of this molecule with itself; also called core complex; wild-type core; source: E. coli BL21 (DE3), co-expressed, purified (Ni-NTA, amylose, ion exchange, SEC); not shown: MBP, N-terminal, cleaved; His6, N-terminal, cleaved; copies: 2 + 2
B6: TEX12 core (49-123) of the SYCE2-TEX12 core MBP-fusion proteins (domain or fragment, human, UniProt Q9BXU0 49-123, looked up)
chain: B2 chain with A54F, A61F, A68V
notes: TEX12, human, core, residues 49-123; also called TEX12 core in the MBP-fusion complexes; source: E. coli BL21 (DE3), co-expressed with MBP-SYCE2, purified
B7: TEX12 core L110E F114E I117E L121E (domain or fragment, human, UniProt Q9BXU0 49-123, looked up)
chain: B2 chain with A54F, A61F, L62E, F66E, A68V, I69E, L73E
notes: TEX12, human, core, residues 49-123, with L110E, F114E, I117E and L121E; also called LFIL (core); source: E. coli BL21 (DE3), co-expressed with SYCE2, purified (Ni-NTA, amylose, ion exchange, SEC); not shown: His6, N-terminal, cleaved
B8: SYCE2 core (amino-acids 57-165) (domain or fragment, human, UniProt Q6PIF2 57-165, looked up)
chain: T2 sequence (looked up)
notes: SYCE2, human, core, residues 57-165; also called SYCE2 structural core; source: E. coli BL21 (DE3), co-expressed with TEX12, purified (Ni-NTA, amylose, ion exchange, SEC); not shown: MBP, N-terminal, cleaved
B9: TEX12 full-length (1-123) (natural protein, human, UniProt Q9BXU0 1-123, looked up)
chain: MMANHLVKPDNRNCKRPRELESPVPDSPQLSSLGKSDSSFSEISGLFYKDEALEKDLNDVSKEINLMLSTYAKLLSERAAVDASYIDEIDELFKEANAIENFLIQKREFLRQRFTVIANTLHR
notes: TEX12, human, full-length, residues 1-123; source: E. coli BL21 (DE3), co-expressed with SYCE2, purified (Ni-NTA, amylose, ion exchange, SEC); not shown: His6, N-terminal, cleaved
B10: SYCE2-TEX12 full-length wild-type, 2:2 building block (complex, human)
chain 1: T1 sequence (looked up)
chain 2: B9 chain
notes: SYCE2, human, full-length, residues 1-218; TEX12, human, full-length, residues 1-123; m2 + m9; also called full-length SYCE2-TEX12; source: E. coli BL21 (DE3), co-expressed, purified (Ni-NTA, amylose, ion exchange, SEC); not shown: MBP, N-terminal, cleaved; His6, N-terminal, cleaved; copies: 2 + 2
B11: SYCE2-TEX12 full-length FFV (TEX12 F102A F109A V116A), 2:2 building block (complex, human)
chain 1: T1 sequence (looked up)
chain 2: B9 chain with F102A, F109A, V116A
notes: SYCE2, human, full-length, residues 1-218; TEX12, human, full-length, residues 1-123, with F102A, F109A and V116A; m2 + m14; source: E. coli BL21 (DE3), co-expressed, purified (Ni-NTA, amylose, ion exchange, SEC); not shown: MBP, N-terminal, cleaved; His6, N-terminal, cleaved; copies: 2 + 2
B12: TEX12 full-length F102A F109A V116A (natural protein, human, UniProt Q9BXU0 1-123, looked up)
chain: B9 chain with F102A, F109A, V116A
notes: TEX12, human, full-length, residues 1-123, with F102A, F109A and V116A; also called FFV (full-length); source: E. coli BL21 (DE3), co-expressed with SYCE2, purified (Ni-NTA, amylose, ion exchange, SEC); not shown: His6, N-terminal, cleaved
B13: TEX12 full-length L110E F114E I117E L121E (natural protein, human, UniProt Q9BXU0 1-123, looked up)
chain: B9 chain with L110E, F114E, I117E, L121E
notes: TEX12, human, full-length, residues 1-123, with L110E, F114E, I117E and L121E; also called LFIL (full-length); source: E. coli BL21 (DE3), co-expressed with SYCE2, purified (Ni-NTA, amylose, ion exchange, SEC); not shown: His6, N-terminal, cleaved
B14: TEX12 core ΔCtip (49-113) of the SYCE2-TEX12 core MBP-fusion proteins (domain or fragment, human, UniProt Q9BXU0 49-113, looked up)
chain: KDEALEKDLNDVSKEINLMLSTYAKLLSERAAVDASYIDEIDELFKEANAIENFLIQKREFLRQR
notes: TEX12, human, core ΔCtip, residues 49-113; also called ΔCtip in the MBP-fusion complex; source: E. coli BL21 (DE3), co-expressed with MBP-SYCE2, purified
B15: TEX12 core ΔCtip (amino-acids 49-113) (domain or fragment, human, UniProt Q9BXU0 49-113, looked up)
chain: B14 chain
notes: TEX12, human, core ΔCtip, residues 49-113; source: E. coli BL21 (DE3), co-expressed with SYCE2, purified (Ni-NTA, amylose, ion exchange, SEC); not shown: His6, N-terminal, cleaved
B16: SYCE2-TEX12 core ΔS2C/ΔCtip 2:2 complex (complex, human)
chain 1: T3 sequence (looked up)
chain 2: B14 chain
notes: SYCE2, human, ΔS2C, residues 57-154; TEX12, human, core ΔCtip, residues 49-113; m3 + m10; also called ΔS2C/ΔCtip core complex; source: E. coli BL21 (DE3), co-expressed, purified (Ni-NTA, amylose, ion exchange, SEC); not shown: MBP, N-terminal, cleaved; His6, N-terminal, cleaved; copies: 2 + 2

What was measured:
[1] = target: SYCE2-TEX12 core FFV (TEX12 F102A F109A V116A), 2:2 building block (human) (UniProt Q6PIF2); test: SEC-MALS; co-purified complexes at >1 mg/ml on Superdex 200 Increase 10/300 GL in 20 mM Tris pH 8.0, 150 mM KCl, 2 mM DTT; in Fig. 1 core at 200 uM and full-length at 100 uM (4 mg/ml)
[2] = target: SYCE2-TEX12 core ΔCtip 2:2 complex (human) (UniProt Q6PIF2); test: as above
[3] = target: SYCE2-TEX12 full-length ΔCtip 2:2 complex (human) (UniProt Q6PIF2); test: as above
[4] = target: T1, SYCE2 full-length (1-218); test: as above; conditions: both partners purified
[5] = target: B8; test: as above; conditions: both partners purified
[6] = target: the molecule itself; test: as above
[7] = target: T2, MBP-SYCE2 core (57-165) fusion protein; test: as above; conditions: both partners purified
[8] = target: T3, MBP-SYCE2 core ΔS2C (57-154) fusion …; test: as above; conditions: both partners purified
[9] = target: the molecule itself; test: crystal structure; SYCE2-TEX12 core ΔCtip 2:2 complex, 33 mg/ml, 35 % MPD, 20°C; space group P21; PDB 6R17
[10] = target: T4, SYCE2 core ΔS2C (amino-acids 57-154); test: SEC-MALS; co-purified complexes at >1 mg/ml on Superdex 200 Increase 10/300 GL in 20 mM Tris pH 8.0, 150 mM KCl, 2 mM DTT; in Fig. 1 core at 200 uM and full-length at 100 uM (4 mg/ml); conditions: both partners purified

stoichiometry N (2:2 building blocks) [1]: 2
Molecule: SYCE2-TEX12 core FFV (TEX12 F102A F109A V116A), 2:2 building block (from UniProt Q6PIF2 57-165; Q9BXU0 49-123) (complex)

percent of total mass as 2:2 complex (not self-associated) [2]: 98%
percent of total mass as 4:4 complex [2]: 2%
stoichiometry N (2:2 building blocks) [2]: 2
Molecule: SYCE2-TEX12 core ΔCtip 2:2 complex (from UniProt Q6PIF2 57-165; Q9BXU0 49-113)

percent of total mass as 2:2 complex (not self-associated) [3]: 98%
percent of total mass as 4:4 complex [3]: 2%
stoichiometry N (2:2 building blocks) [3]: 2
Molecule: SYCE2-TEX12 full-length ΔCtip 2:2 complex (from UniProt Q6PIF2 1-218; Q9BXU0 1-113)

Molecule: B1
stoichiometry N [4]: 1 TEX12 per SYCE2 (2:2)

Molecule: B2
stoichiometry N [5]: 1 TEX12 per SYCE2 (4:4)

Molecule: B3
stoichiometry N [6]: 2 2:2 building blocks

Molecule: B4
percent of total mass as 2:2 complex (not self-associated) [6]: 60%
percent of total mass as 4:4 complex [6]: 40%
stoichiometry N [6]: 2 2:2 building blocks

Molecule: B5
percent of total mass as 4:4 complex [6]: 75%
stoichiometry N [6]: 2 2:2 building blocks

Molecule: B6
stoichiometry N [7]: 1 TEX12 per SYCE2 (4:4)
stoichiometry N [8]: 1 TEX12 per SYCE2 (2:2)

Molecule: B7
stoichiometry N [5]: 1 TEX12 per SYCE2 (2:2)

Molecule: B8
binding result [9]: binds

Molecule: B9
stoichiometry N [4]: 1 TEX12 per SYCE2 (2:2)

Molecule: B10
percent of total mass as 2:2 complex (not self-associated) [6]: 12%
percent of total mass as 4:4 complex [6]: 18%
stoichiometry N [6]: 2 2:2 building blocks

Molecule: B11
percent of total mass as 2:2 complex (not self-associated) [6]: 15%
percent of total mass as 4:4 complex [6]: 20%
stoichiometry N [6]: 2 2:2 building blocks

Molecule: B12
stoichiometry N [4]: 1 TEX12 per SYCE2 (2:2)

Molecule: B13
stoichiometry N [4]: 1 TEX12 per SYCE2 (2:2)

Molecule: B14
stoichiometry N [7]: 1 TEX12 per SYCE2 (2:2)

Molecule: B15
binding result [9]: binds
stoichiometry N [5]: 1 TEX12 per SYCE2 (2:2)
stoichiometry N [10]: 1 TEX12 per SYCE2 (2:2)

Molecule: B16
percent of total mass as 2:2 complex (not self-associated) [6]: 86%
percent of total mass as 4:4 complex [6]: 14%
stoichiometry N [6]: 2 2:2 building blocks
